{
  "source": "paper PMC3098740",
  "about": "(Biochemistry, 2010)",
  "binders": {"B1": {"name": "Methyl-coenzyme M reductase (MCR) subunit β (natural protein, UniProt P11560 1-443, looked up)", "chain": "MAKFEDKVDLYDDRGNLVEEQVPLEALSPLRNPAIKSIVQGIKRTVAVNLEGIENALKTAKVGGPACKIMGRELDLDIVGNAESIAAAAKEMIQVTEDDDTNVELLGGGKRALVQVPSARFDVAAEYSAAPLVTATAFVQAIINEFDVSMYDANMVKAAVLGRYPQSVEYMGANIATMLDIPQKLEGPGYALRNIMVNHVVAATLKNTLQAAALSTILEQTAMFEMGDAVGAFERMHLLGLAYQGMNADNLVFDLVKANGKEGTVGSVIADLVERALEDGVIKVEKELTDYKVYGTDDLAMWNAYAAAGLMAATMVNQGAARAAQGVSSTLLYYNDLIEFETGLPSVDFGKVEGTAVGFSFFSHSIYGGGGPGIFNGNHIVTRHSKGFAIPCVAAAMALDAGTQMFSPEATSGLIKEVFSQVDEFREPLKYVVEAAAEIKNEI"}},
  "molecular_target": "T1, Methyl-coenzyme M reductase (MCR) subunit α (Methanothermobacter marburgensis …, UniProt P11558 1-550)",
  "T1 sequence (looked up)": "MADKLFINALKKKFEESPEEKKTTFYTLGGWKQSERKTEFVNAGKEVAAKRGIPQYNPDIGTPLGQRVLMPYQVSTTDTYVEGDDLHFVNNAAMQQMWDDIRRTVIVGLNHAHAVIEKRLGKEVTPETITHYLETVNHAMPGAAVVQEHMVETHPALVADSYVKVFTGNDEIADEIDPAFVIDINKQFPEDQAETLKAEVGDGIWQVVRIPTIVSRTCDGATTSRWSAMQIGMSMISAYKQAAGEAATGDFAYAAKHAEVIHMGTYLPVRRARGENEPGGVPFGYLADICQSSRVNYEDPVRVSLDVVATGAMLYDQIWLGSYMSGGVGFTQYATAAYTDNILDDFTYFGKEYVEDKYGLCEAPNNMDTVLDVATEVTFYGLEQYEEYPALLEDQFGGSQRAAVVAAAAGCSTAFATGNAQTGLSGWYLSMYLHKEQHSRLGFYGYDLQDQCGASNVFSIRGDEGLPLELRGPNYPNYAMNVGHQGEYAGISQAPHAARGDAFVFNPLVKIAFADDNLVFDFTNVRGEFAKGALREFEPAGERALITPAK",
  "assay": "crystal structure",
  "data": [
    {"binder": "B1", "values": [
      {"measurement": "binding result", "value": "binds"}
    ]}
  ]
}
